For one molecule, Kd, kon and koff results are on record in publication PMC10298926, “Biophysical Characterization of the Binding Mechanism between the MATH Domain of SPOP and Its Physiological Partners” (International Journal of Molecular Sciences, 2023).

The target in test [1] is engineered MATH domain of SPOP (Speckle-type POZ protein), residues 1-182, cysteine residues substituted to serine (UniProt O43791). In words: other fluorescence titration; equilibrium; FRET from the tryptophans of SPOP MATH (excited at 280 nm, emission 300-400 nm) to the dansyl of the peptide; MATH at constant concentration (2 µM in the methods, 1 µM in the results), dansylated peptide 0 to 40 µM; 298 K; hyperbolic fit.

Substrate in test [2]: SPOP MATH K135A (UniProt O43791)
In words: stopped-flow fluorescence binding kinetics; pseudo-first-order; 2 µM MATH mixed with dansylated peptide, 2 to 10 µM Puc and MacroH2A, 2 to 40 µM PTEN; excitation 280 nm; 298 K; kobs against peptide concentration fitted to a line, kon from the slope.

Substrate in test [3]: SPOP MATH Y124A (UniProt O43791)
The test is described as above.

Substrate in test [4]: SPOP MATH D131A (UniProt O43791)
The description is as above.

Substrate in test [5]: SPOP MATH F134A (UniProt O43791)
Described as above.

Substrate in test [6]: SPOP MATH Y88A (UniProt O43791)
The test is described as above.

Substrate in test [7]: SPOP MATH R71A (UniProt O43791)
The description is as above.

Substrate in test [8]: SPOP MATH K130A (UniProt O43791)
The test is described as above.

The target in test [9] is engineered MATH domain of SPOP (Speckle-type POZ protein), residues 1-182, cysteine residues substituted to serine (UniProt O43791). Briefly: stopped-flow fluorescence displacement; preincubated complex of MATH domain and dansylated peptide (both 8 µM) mixed with an excess of nondansylated peptide (50 µM); 298 K; same buffer as the binding experiments; single exponential decay gives koff.

Test [10] shares this target. In words: stopped-flow fluorescence binding kinetics + other: stopped-flow fluorescence displacement; KD calculated by combining kon of the pseudo-first-order plots with koff of the displacement experiments; 298 K.
Substrate in test [11]: SPOP MATH K135A (UniProt O43791)
In words: stopped-flow fluorescence displacement; preincubated complex of MATH domain and dansylated peptide (both 8 µM) mixed with an excess of nondansylated peptide (50 µM); 298 K; same buffer as the binding experiments; single exponential decay gives koff.

Substrate in test [12]: SPOP MATH Y124A (UniProt O43791)
The test is described as above.

Substrate in test [13]: SPOP MATH D131A (UniProt O43791)
The test is described as above.

Substrate in test [14]: SPOP MATH F134A (UniProt O43791)
The description is as above.

Substrate in test [15]: SPOP MATH Y88A (UniProt O43791)
The description is as above.

Substrate in test [16]: SPOP MATH R71A (UniProt O43791)
Described as above.

Substrate in test [17]: SPOP MATH K130A (UniProt O43791)
The test is described as above.

In test [18] the target is engineered MATH domain of SPOP (Speckle-type POZ protein), residues 1-182, cysteine residues substituted to serine (UniProt O43791). Briefly: stopped-flow fluorescence binding kinetics; pseudo-first-order; 2 µM MATH mixed with dansylated peptide, 2 to 10 µM Puc and MacroH2A, 2 to 40 µM PTEN; excitation 280 nm; 298 K; kobs against peptide concentration fitted to a line, kon from the slope.

Where no end group is shown, it is not given here. The star is where a group is joined. Dansyl = CN(C)c1cccc2c(S(=O)(=O)*)cccc12

With Dansyl-DEVTSTTSSS [dansylated peptide mimicking Puc (region 96-105)], the dissociation constant (Kd) in test [1] and in [10] was 1400 nM throughout. Further, the kon in [2] turned out to be 6.3e+06 M⁻¹ s⁻¹; in [3], 6.71e+06 M⁻¹ s⁻¹; in test [4], 1.82e+07 M⁻¹ s⁻¹; in [5] it was 9.4e+06 M⁻¹ s⁻¹; in test [6], 1.44e+07 M⁻¹ s⁻¹; in test [7] it was 8.8e+06 M⁻¹ s⁻¹. For the same molecule, the kon in test [8] came to 1.3e+07 M⁻¹ s⁻¹; in test [18], 1.9e+07 M⁻¹ s⁻¹. The koff in test [9] came to 26.1 s⁻¹; in test [11], 45.2 s⁻¹; in test [12], 78 s⁻¹; in [13] it was 241 s⁻¹; in [14] it was 15 s⁻¹; in [15], 302 s⁻¹. Besides, the off-rate (koff) amounted to 34 s⁻¹ in test [16] and 123 s⁻¹ in test [17].

Broadly, the Kd is the concentration at which binding is half-saturated. The kon is the rate constant with which the complex forms. For orientation: koff means the rate constant with which the complex falls apart.
